Experimental data taken from US10829757B2, “MUB motif is an inhibitor of E2-ubiquitin thioester formation” (Saint Louis University, priority 2016, dated 2020).
No end group written: not given here.

Tests used:
AtUBC8 [1] = biological target: T1, AtUBC8 (Arabidopsis thaliana, UniProt P35131); experiment: E2~Ub thioester formation assay (immunoblot), AtUBC8; assay type: biochemical; details: for inhibition of AtUBC8~Ub thioester formation: MUB protein 30 μM pre-incubated 15 min, 3 μM E2, immunoblot
T1 construct: 6xHis; made in house; host or cells: E. coli Rosetta 2 (DE3) pLacI
Experimental: E2 Thioester Formation Assays.
(§1) E2˜Ub thioester formation assays were performed at 25° C. using 0.25 μM E1, 3 μM E2, 12 μM Ub, and 50 mM HEPES, pH 8.0, initiated with addition of 1 mM Mg-ATP. When included, 30 μM AtMUB3 was pre-incubated for 15 min at 25° C. Reactions were terminated by the addition of non-reducing or reducing Laemmli buffer. Protein samples were visualized and analyzed as described, above, and quantified using Fuji Film Multi-Gauge software. Relative inhibition efficiency (RIE) was determined by comparing the inhibition efficiency of AtMUB3 mutants to wild type as follows; RIE=[1−(E2˜Ub with AtMUB3 mutant/E2)]/[1−(E2˜Ub with WT AtMUB3/E2)].
Lap-Bar Peptide Inhibition Assay.
Lap-Bar custom peptide ([…] SEQ ID NO: 1, Sigma-Aldrich and Peptide 2.0 Inc.), three scrambled peptides ([…] SEQ ID NO: 4, […] SEQ ID NO: 49, […] SEQ ID NO: 50, Peptide 2.0 Inc.) and amino acid controls were dissolved in 50 mM Tris-HCl, pH 7.5, 300 mM NaCl, and 10% Glycerol.

AtUBC4 = biological target: T2, AtUBC4 (Arabidopsis thaliana, UniProt P42748); experiment: E2~Ub thioester formation assay, AtUBC4; assay type: biochemical; details: group IV E2, AtMUB3 30 μM
T2 construct: 6xHis (N); made in house; host or cells: E. coli Rosetta 2 (DE3) pLacI
T2 sequence (P42748 1-187): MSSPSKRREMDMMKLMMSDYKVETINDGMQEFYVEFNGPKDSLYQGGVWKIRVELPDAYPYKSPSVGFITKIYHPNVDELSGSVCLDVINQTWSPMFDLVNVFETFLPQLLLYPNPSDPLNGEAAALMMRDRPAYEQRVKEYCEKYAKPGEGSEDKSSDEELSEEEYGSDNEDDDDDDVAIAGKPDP
Experimental: as §1
(§2) To assess whether MUB binding regulates E2 function, E2˜Ub thioester formation assays were performed on AtUBC8. […] AtUBC8-Ub peptide linkages, which could complicate the analysis, were observed by 10 minutes, so three minute reactions were used in subsequent assays. Ser22 on the so-called backside binding site (BBS) of AtUBC8 is distant from the active site Cys85, and was previously determined to interfere with MUB-induced E2 localization to the PM (Dowil et al., 2011). E2Ub formation on AtUBC8 Ser22Arg was unaffected by AtMUB3, supporting the requirement of a direct interaction for inhibition (FIG. 1C). Since MUBs interact specifically with Arabidopsis group VI E2s, two additional subfamily members, AtUBC10 and AtUBC28 were tested. […]

AtUBC10 = biological target: T3, AtUBC10 (Arabidopsis thaliana, UniProt P35133); experiment: E2~Ub thioester formation assay, AtUBC10; assay type: biochemical; details: group VI E2, AtMUB3 30 μM
T3 construct: 6xHis (N); made in house; host or cells: E. coli Rosetta 2 (DE3) pLacI
Experimental: as §1, §2

AtUBC28 = biological target: T4, AtUBC28 (Arabidopsis thaliana, UniProt Q94F47); experiment: E2~Ub thioester formation assay, AtUBC28; assay type: biochemical; details: group VI E2, AtMUB3 30 μM
T4 construct: 6xHis (N); made in house; host or cells: E. coli Rosetta 2 (DE3) pLacI
Experimental: as §1, §2

AtUBC8 [2] = biological target: T1, AtUBC8; experiment: Isothermal titration calorimetry; assay type: binding; details: ITC, 8 μM AtUBC8, 110 μM AtMUB3 titrant, 25 mM HEPES pH 7.5, 200 mM NaCl
Experimental: FIG. 13. AtMUB binds AtUBC8 with submicromolar dissociation constant Kd as measured by isothermal titration calorimetry. Isothermal titration calorimetry (ITC) was performed on 8 μM AtUBC8 with 110 μM AtMUB3 as the titrant using a MicroCal iTC200 (GE). Proteins were purified as described for crystallization and dialyzed extensively against a buffer containing 25 mM HEPES, pH 7.5, 200 mM NaCl, 1 mM TCEP. Data was processed with MicroCal Origin 7 software, and normalized against the dialysis buffer's heat of dilution. This plot is representative of 3 independent experiments, which yielded similar results but were performed at different concentrations of NaCl.

AtUBC8 [3] = biological target: T1, AtUBC8; experiment: GST pull-down assay with GST-AtUBC8; assay type: binding; details: immunoblot
Experimental: (§3) GST-tagged AtUBC8 was induced as described above, and the soluble extract fraction was immobilized on GSH resin (Thermo Scientific) for 20 min, followed by three washes with sonication buffer. Equi-molar His-tagged AtMUB3, AtMUB3 mutants and Ub were incubated separately with AtUBC8 loaded GSH resin for 15 min, washed three times using sonication buffer, and boiled in Laemmli buffer. MUB recovery was determined by immunoblotting and chemiluminescent detection using Fujifilm LAS4000 imaging. For FLAG pull-down assay, His-tagged AtUBC8C85S—O-Ub was generated (Sakata et al., 2010). Flag-tagged AtMUB3 was immobilized on FLAG resin (Thermo Scientific) for 20 min, followed by three washes with sonication buffer. AtUBC8C85S—O-Ub protein or Ub were incubated separately with AtMUB3 loaded FLAG resin for 15 min, washed three times using sonication buffer, and boiled in Laemmli buffer.

AtUBC8~Ub = biological target: T5, AtUBC8~Ub (Arabidopsis thaliana, UniProt P35131); experiment: E2~Ub thioester discharge assay; assay type: biochemical; details: 30 μM MUB, 100 mM lysine
T5 construct: 6xHis; made in house; host or cells: E. coli Rosetta 2 (DE3) pLacI
Experimental: FIG. 11. […] AtUBC8˜Ub discharging assay is exposed to AtMUB3. The quantification is presented in line graph, top panel (+/−SEM and n=3 for all data points), while the immunoblot (IB) of triple parallel experiments is shown in bottom panel.
AtUBC8 (3 μM) was charged by incubating with 0.25 μM E1, 50 mM HEPES, pH 8.0, 1 mM Mg-ATP and 12 μM K0Ub for 3 min. The E1 was inactivated for 90 seconds with 50×E1 stop buffer (BostonBiochem). Lysine (100 mM) was added to the reaction with or without 30 μM MUB to initiate Ub leaving from the E2 active site.

AtUBC8 Ser22Arg = biological target: T6, AtUBC8 Ser22Arg (Arabidopsis thaliana, UniProt P35131, S22R); experiment: E2~Ub thioester formation assay, AtUBC8 Ser22Arg; assay type: biochemical; details: AtMUB3 30 μM, three minute reaction
T6 construct: 6xHis (C); made in house; host or cells: E. coli Rosetta 2 (DE3) pLacI
Experimental: as §1, §2

[4] = biological target: T7, AtUBC8C85S with Ub linked to the active site through an oxyester bond (Arabidopsis thaliana, UniProt P35131, C85S); experiment: FLAG pull-down assay with FLAG-AtMUB3; assay type: binding; details: immunoblot
T7 construct: His; made in house; host or cells: E. coli Rosetta 2 (DE3) pLacI
Experimental: as §3

AtUBC36 = biological target: T8, AtUBC36 (Arabidopsis thaliana, UniProt Q9FZ48); experiment: E2~Ub thioester formation assay, AtUBC36; assay type: biochemical; details: group XV E2, AtMUB3 30 μM
T8 construct: 6xHis (N); made in house; host or cells: E. coli Rosetta 2 (DE3) pLacI
T8 sequence (Q9FZ48 1-153): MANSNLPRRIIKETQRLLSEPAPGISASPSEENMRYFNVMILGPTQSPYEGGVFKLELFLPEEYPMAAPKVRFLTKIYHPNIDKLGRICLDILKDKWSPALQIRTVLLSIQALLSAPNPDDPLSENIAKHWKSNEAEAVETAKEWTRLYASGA
Experimental: as §1, §2

Ube2D3 [5] = biological target: T9, Ube2D3 (Homo sapiens, UniProt P61077); experiment: E2~Ub thioester formation assay, Ube2D3; assay type: biochemical; details: immunoblot
T9 construct: 6xHis (C); made in house; host or cells: E. coli Rosetta 2 (DE3) pLacI
Experimental: as §1
To test whether the differences between plant and animal LBLs influence their activity, the inventors compared them in reciprocal inhibition experiments. […] Taken together, MUB inhibition of E2Ub formation is conserved and broadly relevant to organisms that use the ubiquitylation system.

Ube2D3 [6] = biological target: T9, Ube2D3; experiment: HTRF-FRET E2 activation assay; assay type: biochemical
Experimental: FIG. 12. Ube2D3 Activation. Using HTRF-FRET, Ube2D3 activation was monitored with indicated concentrations of HsMUB to establish an inhibition curve. The initial velocity was linear over the first 10 minutes and is represented as percent E2 activated, with 100% velocity taken in the absence of MUB and 0% in the absence of ATP. Plot represents three independent assays+s.e.m., fit to the one-site binding equation. An additional three assays fit to the Hill equation with coefficient n produced nearly identical results with n1.
HTRF-FRET E2 activation assays were conducted using reagents adapted from the E1/E2 Lite kit (LifeSensors, Malvern, Pa.). […] Assays were read kinetically using a BioTek Synergy 4 plate reader equipped with Excitation 340/30 nm, Emission1 495/10 nm, Emission2 520/25 nm bandpass filters, a 400 nm dichroic mirror, and a Xenon flash lamp set to read Terbium and Fluorescein emission with a 100 μs time delay and 200 μs data collection time. The corrected FRET ratio was calculated as described in the TR-FRET manual (Molecular Devices): [(Em520/Em490)−(P*Em490))/Em490]*10000, where P=Em520/Em490 with terbium only, a proportionality factor to correct for terbium donor contribution to acceptor emission. The linear slope of the first 10 minutes of the reaction was determined as the initial velocity. […]

T1 sequence (P35131 whole entry): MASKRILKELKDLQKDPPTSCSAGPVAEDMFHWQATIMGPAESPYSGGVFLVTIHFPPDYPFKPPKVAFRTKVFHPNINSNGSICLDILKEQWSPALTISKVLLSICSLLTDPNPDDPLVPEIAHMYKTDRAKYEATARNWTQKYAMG
T9 sequence (P61077 whole entry): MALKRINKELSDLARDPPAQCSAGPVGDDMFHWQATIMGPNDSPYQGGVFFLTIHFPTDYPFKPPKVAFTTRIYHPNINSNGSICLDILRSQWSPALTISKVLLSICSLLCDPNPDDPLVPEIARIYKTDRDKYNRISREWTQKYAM
T5 sequence (P35131 whole entry): as the sequence (P35131 whole entry) above
T4 sequence (Q94F47 whole entry): as the sequence (P35131 whole entry) above, with A41S, E42D, I78V, A136S, N140S counted along it
T6 sequence (P35131 whole entry S22R): as the sequence (P35131 whole entry) above, with S22R counted along it
T7 sequence (P35131 whole entry C85S): as the sequence (P35131 whole entry) above, with C85S counted along it
T3 sequence (P35133 whole entry): as the sequence (P35131 whole entry) above, with A41S, S46A, R131K, A132N, A136S, N140S counted along it

For “LKLPFGKT [minimal human LBL, human MUB Lap Bar Loop eight-residue peptide]”, the “inhibition of AtUBC8~Ub formation by peptides” value (AtUBC8 [1]; peptide 5 mM, 3 μM AtUBC8) was “potent inhibitory activity”.

For “AtMUB3: Arabidopsis thaliana Membrane-anchored Ubiquitin-fold protein 3, recombinant, His-tagged (VGQCKTPFGDIAGGVIVMHVV; also: His tag; listed as Arabidopsis thaliana)”, the “inhibition of AtUBC4 activation” value (AtUBC4) was “unaffected”, the “inhibition of AtUBC10 activation” value (AtUBC10) was “strongly inhibited” and the “inhibition of AtUBC28 activation” value (AtUBC28) was “strongly inhibited”. For the same molecule, the “dissociation constant Kd” value (AtUBC8 [2]) was “submicromolar”, the “inhibition of AtUBC8~Ub thioester formation” value (AtUBC8 [1]) was “strongly reduced” and the “binding to GST-AtUBC8 in pull-down” value (AtUBC8 [3]) was “efficient bait”. The “Ub discharge from AtUBC8~Ub” value (AtUBC8~Ub) was “increase Ub discharging”, the “Ub discharge from AtUBC8~Ub” value (AtUBC8~Ub; listed as MUB) was “slightly faster” and the “inhibition of E2~Ub formation on AtUBC8 Ser22Arg” value (AtUBC8 Ser22Arg) was “unaffected”. The “pull-down of AtUBC8C85S-O-Ub” value [4] was “can pull-down”, the “inhibition of AtUBC36 activation” value (AtUBC36) was “unaffected” and the “inhibition of Ube2D3~Ub formation” value (Ube2D3 [5]) was “does not inhibit”.

B1: HsMUB: human version of MUB, aka Ubl3, SEQ ID NO: 2 (protein, listed as Homo sapiens)
chain: MSSNVPADMINLRLILVSGKTKEFLFSPNDSASDIAKHVYDNWPMDWEEEQVSSPNILRLIYQGRFLHGNVTLGALKLPFGKTTVMHLVARETLPEPNSQGQRNREKTGESNCCVIL
With B1 the “inhibition of AtUBC8~Ub thioester formation” value (AtUBC8 [1]) was “potent inhibition”, the “maximal inhibition of Ube2D3 activation” value (Ube2D3 [6]) was “up to 70%” and the “inhibition of Ube2D3~Ub formation” value (Ube2D3 [5]) was “potent inhibition”.

B2: AtMUB3 F77A (protein, UniProt Q9SW27 1-115, looked up, variant F77A)
Membrane-anchored …: MPEEESIDIKFRLYDGSDIGPFRYSAASTVDFLKQRVVSDWPKGKTVVPKGINEVKLISSGKILENNKTVGQCKTPAGDIAGGVIVMHVVVQPSLAKSKTEKKVDKAPKAVICTC
In the case of B2, the “inhibition of AtUBC8~Ub thioester formation” value (AtUBC8 [1]) is reported as “strong loss of inhibition”.
